Experiments:
protofibrillar Aβ1-42 = protofibrillar Aβ1-42 (UniProt P05067)
fibrillar Aβ1-42 = fibrillar Aβ1-42 (UniProt P05067)
[1] = target: high-molecular-weight (MW) Aβ assemblies (UniProt P05067)
[2] = target: Aβ1-42 (fresh, nonaggregated synthetic peptide, rPeptide) (UniProt P05067)
Aβ1-38 = Aβ1-38 (UniProt P05067)
Aβ1-40 = Aβ1-40 (UniProt P05067)
Aβ1-40, sequence (P05067 whole entry, looked up, tested part not stated): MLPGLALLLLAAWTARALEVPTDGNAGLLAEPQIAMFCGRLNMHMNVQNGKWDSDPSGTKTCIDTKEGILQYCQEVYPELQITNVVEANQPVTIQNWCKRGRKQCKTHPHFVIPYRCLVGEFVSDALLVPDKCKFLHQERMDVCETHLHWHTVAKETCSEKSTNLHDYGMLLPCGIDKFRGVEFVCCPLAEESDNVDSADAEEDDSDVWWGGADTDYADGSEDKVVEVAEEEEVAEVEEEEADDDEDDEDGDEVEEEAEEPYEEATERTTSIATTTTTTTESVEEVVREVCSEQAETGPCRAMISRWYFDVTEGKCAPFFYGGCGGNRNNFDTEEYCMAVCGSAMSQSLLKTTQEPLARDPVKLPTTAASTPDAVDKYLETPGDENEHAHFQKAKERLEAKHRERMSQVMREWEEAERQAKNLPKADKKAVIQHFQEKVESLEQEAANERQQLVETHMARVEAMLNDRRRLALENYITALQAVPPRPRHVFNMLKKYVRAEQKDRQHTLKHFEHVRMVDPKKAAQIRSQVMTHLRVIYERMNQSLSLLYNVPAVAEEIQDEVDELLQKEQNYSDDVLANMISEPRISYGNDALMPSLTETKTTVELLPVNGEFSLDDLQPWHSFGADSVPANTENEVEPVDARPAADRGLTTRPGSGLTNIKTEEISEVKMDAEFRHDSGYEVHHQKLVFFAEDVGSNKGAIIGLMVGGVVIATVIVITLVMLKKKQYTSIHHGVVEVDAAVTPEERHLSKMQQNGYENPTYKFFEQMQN

Aβ1-42 (fresh, nonaggregated synthetic peptide, rPeptide), sequence (P05067 whole entry, looked up, tested part not stated): as above
fibrillar Aβ1-42, sequence (P05067 whole entry, looked up, tested part not stated): as above
protofibrillar Aβ1-42, sequence (P05067 whole entry, looked up, tested part not stated): as above
high-molecular-weight (MW) Aβ assemblies, sequence (P05067 whole entry, looked up): as the sequence (P05067 whole entry, looked up, tested part not stated) above
Aβ1-38, sequence (P05067 whole entry, looked up, tested part not stated): as above

purified CatB from human liver (Sigma) was tested, and the “SELDI-TOF mass spectrometry of cleavage at pH 6.0” value (protofibrillar Aβ1-42) was “at pH 6.0, were cleaved by CatB as efficiently as nonaggregated preparations, resulting in the same C-terminally-truncated peptides, Aβ1-40, Aβ1-38, and Aβ1-33”, the “SELDI-TOF mass spectrometry of cleavage at pH 7.0” value (protofibrillar Aβ1-42) was “protofibrillar/nonfibrillar Aβ oligomers and fibrillar Aβ1-42 preparations were cleaved by CatB even at neutral pH, resulting in the same truncated Aβ species observed at pH 6.0” and the “SELDI-TOF mass spectrometry of cleavage at pH 7.0” value (fibrillar Aβ1-42) was “protofibrillar/nonfibrillar Aβ oligomers and fibrillar Aβ1-42 preparations were cleaved by CatB even at neutral pH, resulting in the same truncated Aβ species observed at pH 6.0”. The “amount of fibrillar structures by electron microscopy” value (fibrillar Aβ1-42) was “incubation of fibrillar Aβ1-42 with CatB did reduce the amount of fibrillar structures”, the “western blot of Tricine SDS-PAGE gels” value [1] was “Incubation of CatB induced a marked decrease in the amounts of high-molecular-weight (MW) Aβ assemblies” and the “SELDI-TOF mass spectrometry of cleavage at pH 7.0” value [2] was “At neutral pH (˜7.0), the ability of CatB to cleave Aβ, especially nonaggregated (fresh) Aβ, was markedly reduced”. The “proteolytic products analyzed with SELDI-TOF mass spectrometry” value (“proteolytic products analyzed” for short) [2] was “Incubating Aβ1-42 with CatB resulted in the dose-dependent generation of Aβ1-40, Aβ1-38, and Aβ1-33 through proteolytic cleavage at Val40-Ile41, Gly38-Gly39, and Gly33-Leu34”, the “western blot analysis of acid-urea gels” value [2] was “The dose-dependent cleavage of Aβ1-42 was confirmed by western blot analysis of acid-urea gels” and the “western blot of Tricine SDS-PAGE gels” value [2] was “Levels of low-MW Aβ1-42 oligomers and monomers, detected with an antibody specific for Aβ1-42, were also reduced”. The “proteolytic products analyzed” value (Aβ1-38) was “even when Aβ1-40 was almost completely converted to Aβ1-38, no Aβ1-36 was generated from Aβ1-38” and the “proteolytic products analyzed” value (Aβ1-40) was “Levels of Aβ1-40 were increased initially at lower doses (100-400 ng/ml), but decreased at higher doses (0.4-2.5 µg/ml)”.
